Laboratory results as given in PMC7104187.

Biological target: T1, SauCas9 (Staphylococcus aureus, UniProt J7RUA5 1-1053)
T1 sequence: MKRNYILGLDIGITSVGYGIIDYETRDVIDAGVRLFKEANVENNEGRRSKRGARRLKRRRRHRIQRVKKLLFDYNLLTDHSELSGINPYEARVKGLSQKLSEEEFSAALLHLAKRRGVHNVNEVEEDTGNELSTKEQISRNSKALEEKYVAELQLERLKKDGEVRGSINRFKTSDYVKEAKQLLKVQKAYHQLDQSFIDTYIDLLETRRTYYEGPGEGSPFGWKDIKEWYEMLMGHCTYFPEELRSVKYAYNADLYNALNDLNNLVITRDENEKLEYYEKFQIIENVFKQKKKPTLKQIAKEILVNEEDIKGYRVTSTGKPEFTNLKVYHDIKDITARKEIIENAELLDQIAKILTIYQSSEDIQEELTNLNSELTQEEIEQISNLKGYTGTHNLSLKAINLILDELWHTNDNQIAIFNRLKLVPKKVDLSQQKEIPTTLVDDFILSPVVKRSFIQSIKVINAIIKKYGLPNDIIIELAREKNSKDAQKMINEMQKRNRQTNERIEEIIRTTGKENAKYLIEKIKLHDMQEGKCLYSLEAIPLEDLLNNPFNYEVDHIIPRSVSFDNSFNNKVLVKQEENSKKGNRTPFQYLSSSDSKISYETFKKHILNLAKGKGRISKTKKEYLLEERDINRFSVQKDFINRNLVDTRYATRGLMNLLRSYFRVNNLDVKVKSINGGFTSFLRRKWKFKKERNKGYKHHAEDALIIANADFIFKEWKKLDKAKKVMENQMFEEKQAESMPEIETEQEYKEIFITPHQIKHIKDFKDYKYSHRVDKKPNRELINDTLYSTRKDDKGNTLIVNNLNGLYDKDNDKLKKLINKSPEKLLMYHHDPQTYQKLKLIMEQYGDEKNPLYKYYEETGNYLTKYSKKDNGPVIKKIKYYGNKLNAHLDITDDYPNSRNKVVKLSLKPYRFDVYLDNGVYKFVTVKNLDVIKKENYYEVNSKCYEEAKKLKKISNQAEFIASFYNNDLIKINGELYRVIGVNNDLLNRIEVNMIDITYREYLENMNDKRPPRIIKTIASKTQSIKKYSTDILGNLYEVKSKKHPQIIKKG
Test: EMSA

B1: EGFP sgRNA + target dsDNA (T) (mixed)
RNA: GCAAGGGCGAGGAGCUGUUCACGUUUUAGUACUCUGGAAACAGAAUCUACUAAAACAAGGCAAAAUGCCGUGUUUAUCUCGUCAACUUGUUGGCGAGAUUUUU
DNA 1: TGGTGAGCAAGGGCGAGGAGCTGTTCACCGGGGT
DNA 2: ACCCCGGTGAACAGCTCCTCGCCCTTGCTCACCA
B1: binds.
